This experiment addresses T1, PITPNM3 (Homo sapiens, UniProt Q9BZ71).
T1 chain: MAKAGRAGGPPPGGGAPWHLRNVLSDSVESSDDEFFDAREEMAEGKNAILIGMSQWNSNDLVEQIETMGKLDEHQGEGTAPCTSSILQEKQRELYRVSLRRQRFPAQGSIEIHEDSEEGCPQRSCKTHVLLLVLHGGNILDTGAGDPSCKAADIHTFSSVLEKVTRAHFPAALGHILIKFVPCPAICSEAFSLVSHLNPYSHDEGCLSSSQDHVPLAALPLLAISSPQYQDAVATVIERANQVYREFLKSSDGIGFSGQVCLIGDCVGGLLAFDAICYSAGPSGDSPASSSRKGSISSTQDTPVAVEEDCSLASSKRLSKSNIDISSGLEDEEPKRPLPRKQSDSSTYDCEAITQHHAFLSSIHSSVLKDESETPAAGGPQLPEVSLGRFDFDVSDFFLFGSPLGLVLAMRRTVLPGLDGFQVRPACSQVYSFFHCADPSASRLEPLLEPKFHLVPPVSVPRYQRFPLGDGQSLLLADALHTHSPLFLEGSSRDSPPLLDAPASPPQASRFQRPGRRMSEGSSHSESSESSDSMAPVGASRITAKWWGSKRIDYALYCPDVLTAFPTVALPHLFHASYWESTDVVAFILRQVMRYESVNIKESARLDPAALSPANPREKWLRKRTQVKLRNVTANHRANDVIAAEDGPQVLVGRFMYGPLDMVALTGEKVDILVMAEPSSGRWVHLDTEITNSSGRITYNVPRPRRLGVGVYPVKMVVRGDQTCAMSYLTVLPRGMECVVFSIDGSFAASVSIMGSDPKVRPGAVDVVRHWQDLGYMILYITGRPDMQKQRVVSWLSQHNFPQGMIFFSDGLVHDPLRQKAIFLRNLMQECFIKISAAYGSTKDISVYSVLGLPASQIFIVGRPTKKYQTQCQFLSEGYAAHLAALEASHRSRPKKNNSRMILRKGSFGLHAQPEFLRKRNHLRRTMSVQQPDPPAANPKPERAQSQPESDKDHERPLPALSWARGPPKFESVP
Nature of the experiment: 125I-CCL18 radioligand competition binding on PITPNM3-transfected HEK293 cells.

By Kd is commonly meant a measure of binding affinity in units of concentration.

B1: CCL18 (protein)
chain: GTNKELCCLVYTSWQIPQKFIVDYSETSPQCPKPGVILLTKRGRQICADPNKKWVQKYISDLKLNA
B1 returned a Kd of 5.17 nM. This counts as single-digit nanomolar.

B2: CCL4 (protein)
chain: APMGSDPPTACCFSYTARKLPRNFVVDYYETSSLCSQPAVVFQTKRSKQVCADPSESWVQEYVYDLELN
The molecule B2 came in with a Kd of 833 nM.

B3: CCL3 (protein)
chain: SLAADTPTACCFSYTSRQIPQNFIADYFETSSQCSKPGVIFLTKRSRQVCADPSEEWVQKYVSDLELSA
Take B3: the Kd came to 277 nM.

Source of the values: paper PMC3107500 (2011).
